Results on one molecule are retold here after US20140011978A1 (EPFL TTO, published 2014).

One assay has as its target T1, PDGF-AB (UniProt P04085 87-211; P01127 82-190, limits assumed).
T1 construct: The name implies a heterodimer of A and B chains
Briefly: ELISA, cytokine coated, Fg β15-66 in solution (methods as Example 3). As for the experimental part: (§1) ELISA plates were coated with cytokines or BSA and further incubated with TNC III1-5 to analyze binding of TNC III1-5 to a wide variety of cytokines. […] A large amount of heparin (4 μM) impaired binding of TNC III1-5 to these cytokines. Results are depicted in FIG. 3. Method: 50 nM of cytokine was coated for (1 hr, 37° C.). After blocking with 2% BSA (1 hr, RT). 100 nM TNC III1-5 was applied in PBST (0.05% tween, 0.1% bovine serum albumin (BSA)) (1 hr, RT). TNC III1-5 was detected with horseradish peroxidase (HRP)-anti-HIS in PBST (1 hr, RT) and developed with 3,3′,5,5′-tetramethylbenzidine (TMB), a soluble colorimetric HRP […]. Addition of sulfuric acid stop solution changes the color to yellow, enabling accurate measurement of the intensity at 450 nm using a spectrophotometer or plate reader. […] Heparin (4 μM) was added to TNC III1-5 to test the effect of blocking the heparin binding site of TNC III1-5, which has been defined as domain TNC III5 (Weber, Zimmermann, et al., 1995).
(§2) ELISA plates were coated with cytokines or BSA and further incubated with Fg β15-66 to analyze binding of […] to a wide variety of cytokines. […] Results are depicted in FIG. 4. Method: The methods were analogous to those used in Example 3.

The next assay has as its target T2, FGF-5 (UniProt P12034 21-268, limits assumed).
T2 sequence (looked up): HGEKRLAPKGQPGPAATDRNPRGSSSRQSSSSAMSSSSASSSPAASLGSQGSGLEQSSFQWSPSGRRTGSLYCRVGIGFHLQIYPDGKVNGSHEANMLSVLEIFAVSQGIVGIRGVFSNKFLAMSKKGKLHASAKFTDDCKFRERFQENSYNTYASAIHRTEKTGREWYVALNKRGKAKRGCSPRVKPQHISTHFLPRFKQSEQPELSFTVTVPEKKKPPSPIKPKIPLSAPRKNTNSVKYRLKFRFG
The assay is described as above. As for the experimental part:
as §1, §2

For the next assay, the target named is T3, BMP-2/7 (UniProt P12643 283-396; P18075 293-431).
T3 construct: The name implies a BMP-2/BMP-7 heterodimer
T3 sequence (P12643 283-396, chain 1 of 2): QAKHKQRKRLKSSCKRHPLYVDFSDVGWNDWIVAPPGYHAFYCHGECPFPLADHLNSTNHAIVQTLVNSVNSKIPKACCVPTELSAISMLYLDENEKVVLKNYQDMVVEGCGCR
T3 sequence (P18075 293-431, chain 2 of 2): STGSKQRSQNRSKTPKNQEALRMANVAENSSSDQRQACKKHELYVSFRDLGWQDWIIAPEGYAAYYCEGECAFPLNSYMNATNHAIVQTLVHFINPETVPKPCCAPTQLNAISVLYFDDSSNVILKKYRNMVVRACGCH
The description is as above. As for the experimental part: as §1, §2

In a further assay the target is TGF-β1 (UniProt P01137 279-390). Briefly: SPR, Fg β15-66 on the chip, cytokine injected (methods as Example 5), Langmuir fit. As for the experimental part: (§3) Surface plasmon resonance (SPR) was done to quantify the affinity of specific cytokines to TNC III1-5. […] Method: Surface plasmon resonance chips were functionalized with TNC III1-5 or BSA and cytokines were injected over the chips at different concentrations. The chips contained gold with free carboxyl groups that were activated to bind TNC III1-5 in one channel and BSA as a reference protein in another channel. The specific response of a cytokine to TNC III1-5 (in RU) was obtained relative to the response to BSA. Results are depicted in FIG. 5.
Sequence of TGF-β1 (P01137 279-390 limits assumed): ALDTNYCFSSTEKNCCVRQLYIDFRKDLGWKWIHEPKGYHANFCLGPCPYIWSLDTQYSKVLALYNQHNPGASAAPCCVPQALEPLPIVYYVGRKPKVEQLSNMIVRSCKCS
(§4) Surface plasmon resonance (SPR) was done to quantify the affinity of specific cytokines to Fg β15-66. […] Method: The methods used above were analogous to those used in Example 5. Fits of the experimental data were made with Langmuir binding kinetics. Results are depicted in FIG. 6.

The target of the next assay is T4, PlGF-2 (UniProt P49763-3 19-170).
T4 sequence (looked up): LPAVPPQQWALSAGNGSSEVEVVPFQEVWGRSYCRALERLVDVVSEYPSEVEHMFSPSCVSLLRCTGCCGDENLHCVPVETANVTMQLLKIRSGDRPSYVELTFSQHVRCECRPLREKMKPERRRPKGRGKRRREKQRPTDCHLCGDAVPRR
Described as above. As for the experimental part: as §3, §4

In another assay the target is IGF-BP5 (UniProt P24593 21-272). The description is as above. As for the experimental part:
as §3, §4

A further assay concerns the target FGF-2 (UniProt P09038 135-288, limits assumed). The description is as above. As for the experimental part:
as §3, §4

The target in a further assay is T5, TGF-β2 (UniProt P61812 303-414).
T5 sequence (looked up): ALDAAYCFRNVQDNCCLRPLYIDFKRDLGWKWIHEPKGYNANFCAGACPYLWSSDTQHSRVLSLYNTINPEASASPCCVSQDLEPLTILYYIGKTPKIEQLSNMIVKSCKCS
The assay can be described thus: ELISA: growth factor coated, Fg fragment in solution, A450 (methods analogous to Example 3). On the procedure:
as §1, §2

The next assay concerns the target T6, BSA (bovine, UniProt P02769).
T6 construct: negative control; also called bovine serum albumin
Briefly: ELISA: BSA coated as control, Fg fragment in solution, A450 (methods analogous to Example 3). As for the experimental part: as §1, §2

Sequence of IGF-BP5 (P24593 21-272 limits assumed): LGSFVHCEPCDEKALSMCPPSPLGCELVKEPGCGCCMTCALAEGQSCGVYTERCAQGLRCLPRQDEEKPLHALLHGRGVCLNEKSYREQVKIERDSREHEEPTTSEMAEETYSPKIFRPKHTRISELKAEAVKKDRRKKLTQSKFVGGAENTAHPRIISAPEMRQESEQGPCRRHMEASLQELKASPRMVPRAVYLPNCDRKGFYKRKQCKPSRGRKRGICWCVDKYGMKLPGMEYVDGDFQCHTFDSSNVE
T1 sequence (P01127 82-190 limits assumed, chain 2 of 2, other chains not shown): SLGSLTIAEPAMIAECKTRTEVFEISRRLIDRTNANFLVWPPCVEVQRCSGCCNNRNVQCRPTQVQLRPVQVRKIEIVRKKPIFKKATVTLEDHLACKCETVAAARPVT
T6 sequence (P02769 25-607 limits assumed): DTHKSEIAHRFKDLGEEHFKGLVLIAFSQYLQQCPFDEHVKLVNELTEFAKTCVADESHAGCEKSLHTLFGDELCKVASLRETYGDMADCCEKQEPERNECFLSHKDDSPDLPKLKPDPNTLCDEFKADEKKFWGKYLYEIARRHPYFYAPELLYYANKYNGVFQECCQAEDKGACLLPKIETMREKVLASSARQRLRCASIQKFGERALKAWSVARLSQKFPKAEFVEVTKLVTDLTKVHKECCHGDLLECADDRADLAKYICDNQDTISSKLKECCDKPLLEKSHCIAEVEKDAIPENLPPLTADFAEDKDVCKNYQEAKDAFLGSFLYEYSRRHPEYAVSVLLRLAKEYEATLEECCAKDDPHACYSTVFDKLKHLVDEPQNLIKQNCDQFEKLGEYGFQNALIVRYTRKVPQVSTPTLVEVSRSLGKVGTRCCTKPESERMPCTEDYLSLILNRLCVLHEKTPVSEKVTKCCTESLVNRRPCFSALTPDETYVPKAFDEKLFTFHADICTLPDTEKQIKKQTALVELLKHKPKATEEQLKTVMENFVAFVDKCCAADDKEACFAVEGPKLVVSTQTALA
Sequence of FGF-2 (P09038 135-288 limits assumed): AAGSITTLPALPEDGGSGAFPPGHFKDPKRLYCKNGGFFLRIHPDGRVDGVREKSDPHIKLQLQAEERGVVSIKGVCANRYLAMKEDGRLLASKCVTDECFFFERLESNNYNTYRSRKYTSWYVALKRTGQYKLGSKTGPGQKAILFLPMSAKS

B1: Fg β15-66 (other)
chain: GSNQEQVSPLGHRPLDKKREEAPSLRPAPPPISGGGYRARPAKAAATQKKVERKAPDAGGCGHHHHHH
notes: Made as a GST fusion; GST was cleaved off; also called TG-Fg β15-66; fibrinogen β15-66 domain
As to B1, the binding result with PDGF-AB was “binds”; in the assay with FGF-5 it was “binds”; in the assay with BMP-2/7 it was “binds”; in the assay with TGF-β2, “binds”; with BSA, “no binding”. In addition, the Kd is 0.0565 µM in the assay with TGF-β1, 0.0019 µM with PlGF-2, 0.0196 µM with IGF-BP5 and 0.053 µM in the assay with FGF-2.
